In the RNAGym collection of RNA variant scans (doi:10.1073/pnas.2313332121):
Fewer inactive variants are shown than the library holds.

B1: TPR 5TU (parent)
chain: GGAUCUUCUCGAUCUAACAAAAAAGACAAAUCUGCCACAAAGCUUGAGAGCAUCUUCGGAUGCAGAGGCGGCAGCCUUCGGUGGCGCGAUAGCGCCAACGUUCUCAACUAUGACACGCAAAACGCGUGCUCCGUUGAAUGGAGUUUAUCAUG

Variants of: B1
Assay: polymerase ribozyme fitness, log enrichment relative to wild type (log ratio); higher = more active; in vitro selection for triplet polymerase activity
Procedure, shortened: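 Input and output libraries were sequenced on Illumina after a single in vitro selection round, run in triplicate on PCR-built, transcribed mutant libraries of each subunit of a heterodimeric triplet polymerase ribozyme. Selection annealed libraries to a biotinylated primer, the partner subunit and triplets, incubated them frozen at −7 °C, then gel-excised extended constructs for streptavidin-bead capture and RT-PCR. Genotypes with ≥10 input reads and ≥1 read per output were kept. Fitness is the logarithm, taken in base 2, of genotype enrichment divided by wild-type enrichment, using inverse-variance-weighted replicate averages.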

Row | Variant | polymerase ribozyme fitness (log ratio)
1 | GGAUCUUCUCGAUCUAACAAAAAAGACAAAUCUGCCACACAACUUGAGGGCAUCUUCGGAUCCAGAGGCGGCAGCCUUCGGUGGCGCGAUAGAGCCAACGUUCUCAACUAUGACACGCAAAACGCGUGCUCCGUUGAAUGGAGUUUAUCAUG [A40C G42A A49G G62C C93A] | ≤ -4.2
2 | GGAUCUUCUCGAUCUAACGAAAAAGACAAAUAUGCCACACAGCUUGAGAGCAUCUUCGGAAGCAGAGGCGGCAGCCUUCGGUGGCGCGAUAGGGCCAACGUUCUCAACUGUGACACGCAAAACGCGUGCUCCGUUGAAUGGAGUUUAUCAUG [A19G C32A A40C U61A C93G A110G] | ≤ -4.2
3 | GGAUCUUCUCGAUCUAACAAAAAAGACAAAUCUGCCACAAAGCUUGAGAGCAUCUUCGGAUGCAGAGGCGGCAGCCUUCGGUGGCGAGAUAGCGCUAAGGUUCUCAACUACGACACGCAAAACGAGUGCUCCGUUGAAUGGAGUUUAUCAUG [C87A C96U C99G U111C C125A] | ≤ -4.2
4 | GGAUCUUCUCGAUCUAACAUAAAAGACAAAUCUGCCACAAAGCUUGCGAGCAUCUUUGGAUGCCGAGGCGGCAGCCUUCGGUGCCGCGAUAGCGCCAACGUUCUCAACUAUGACACGCAAAACGCGUGCUCCGUUGAAUGGAGUUUAGCAUG [A20U A47C C57U A64C G84C U148G] | ≤ -4.2
5 | GGAUCUUCUCGAUCUAACAAAAAAGACAAAUCUGCCACAAAGCUUGAGAGCAUCUUCGGAUGCAGAGGCGGCAGCAUUCGGUGGCGCGAUAGCGCCAACGUUCUCAACUAUGACACGCAAAUCGCGUGCUCCGUUGAAUGGAGUUUAUCAUG [C76A A122U] | 0.592
6 | GGAUCUUCUCGAUGUAACAAAAAAGACAAAUCUGCCACAAAGCUUGAGAGCAUCUUCGGAUGCAGAGGCGGCAGCCUUCGGUGGCGCGAUAGCGCCAAGGUUCUCAACUAUGACACGCAAAACGCGUGCUCCGUUGAAUGGAGUUUAUCAUG [C14G C99G] | -3.32
7 | GGAUCUUCUCGAUCUAACAAAAAAGACAAAUCUGCCACAAAGCUUGAGAGCAUCUUCGGAUGCAGAGGCGGCAGCCUUCGGUGGCGCGAUAGCGCCAACGUUCUCAACUAUGACACGCAAAACGCGUGGUCCGUUGAAUGGAGUUUAUCAUG [C129G] | -2.45
8 | GGACCUUCUGGAUCUAACAAAAAAGACCAAUCUGCCACAAAGCUUGAGCGCAUCUUCGGAUGCAGAGGCGGCAGCCUUCGGUGGCACGAUAGCGCCAAGGUUCGCAACUAUGACACGCAAAACGCGUGCUCCGUUGAAUGGAGUUUAUCAUG [U4C C10G A28C A49C G86A C99G U104G] | ≤ -4.2
9 | GGAUCUUCUCGAUCUAACAAAAGAGACGAAUCUGCCACUUAGCAUGAGAGCAUCUUCGGAAGCAGAGGCGGCAGCCUGCGGUGGUGCGAUAGCGCCAACGUUCUCAACUAUGACACGCAAAACGCGUGCUCCGUUGAAUGGAGUUUAUCAGG [A23G A28G A39U A40U U44A U61A U78G C85U U151G] | ≤ -4.2
10 | GGAUCUUCUCGAUCUAACAAAAAAGACAAAUCUGCCACAAAGCUUGAGAGCAUCUUCGGAUGCAGAGGCGGCAGCCUUCGGUGGCGCGAUAGCGCCAACGUUCUCAACUAUGACUCGCAAAACGCGUGCUCCGCUGAAUGGAGUUUAUCAUG [A115U U134C] | -1.19
11 | GGAUCUUCUCGAUCUGACAAAUAAGACAAAUCUGCCACAAAGCUUGCGAGCAUCUUCGGAUGCAGAGGCGGCAGCCUUCGGUGGCGCGAUAGCGAUAACGUUCUCAACUAUGACACGCAAAACGCGUGCUCCGUUGAAUGGAGUUUAUCAUG [A16G A22U A47C C95A C96U] | -3.89
12 | GGAUCUUCUCGAUCUAACAAAAAAGACAAAUCUGCCACAAAGCUUGAGCGCAUCUUCGGAUGCAGAGGCGGCAGCCUUCGGUGGCGCGAUAGCGCCAGCGUUCUCAACUAUGACACGCAAAACGCGUGCUCCGUUGAAUGGAGUUUAUCAUG [A49C A98G] | ≤ -4.2
13 | GGAUCUUCUCGAUCUAAGAAAAAAGUCAAAUCUGCCACAAAGCUUGUGAGCAUCUUCGGAUGCAGACGCGGCAGCCUUCGGUGGCGCGAUAGCGCCAACGUUCUGAACUAUGACACGCAAAACGCGUGCUCCGUUGAAUGGAGUUAAUGAUG [C18G A26U A47U G67C C105G U146A C149G] | ≤ -4.2
14 | GGAUCUUCUCGAUCUAACAAAAAAGACAAAUCUGCCACAAAGCUUGAGAGCAUCUUCGGAUGCAGAGGCGGCAGCCUUCGGUGGCGCGAUAGCGCUAACGUUCUCAACUAUGACACGCAAAAAGCGUGCUCCGUUGAAUGGAGUUUAUCAUG [C96U C123A] | -0.106
15 | GGAUCUUCUCGAUCUAACAUAAAAGACUAAUCUGCCACUAAGCUUGAGAGCAUCUUCGGAUGCAGAGGCGGCAGCCUUCGGUAGCGCGAUAGCGCCAACGUUCUCAACUAUGACACGCAAAACGCGUGCUCCGUUGAAUGAAGUUUAUCAUG [A20U A28U A39U G83A G141A] | -4.1
16 | GGAUCUUCGCGAUCUAACAUAAAAGACAAAUCUGCCACAAAGCUUGAGAGCAUCUUCGGAUGCAGAGGCGGCAGCCUUCGGUGACGCGAUAGCGCCAACGUCCUCAACUAUGACGCGCAAAACGCGUGCUCCGUUGAAUGGAGUUUAUCAUG [U9G A20U G84A U102C A115G] | ≤ -4.2
17 | GGAUCUUCUCGAUCUAACAAAAAAGACAAAUCUGGCACCAAGCUUGAGAGCAUCUUCGGAUGCAGAGGCGGCAGCCUUCGGCGGCGCGAUAGCGCCAACGUUCUCAACUAUGACAUGCAAAACGGGUGCUCCAUUGAAUGGAGUUUAUCAUG [C35G A39C U82C C116U C125G G133A] | ≤ -4.2
18 | GGAUCUUCUCGAUCUAACUAACAAGACAAAUCUGCCACACAGGUUGAGAGCAUCUUCGGAUGCAGCGGCGGCAGCCUUCGGUGGCGCGAUAGCGACAACGUUCUCAACUAUGACACGCAAAACGCGUGCUCCGUUGAAUGUAGUUUAUCAUA [A19U A22C A40C C43G A66C C95A G141U G152A] | -3.6
19 | GGAUCUUCUCGAUCUAACAAAAAAGACAAAUCUGCCACAAAGCUUGAGAGCAUCUUAGGAUGCAGAGGGGGCAGCCUUCGGUGGCGCGAUUGCGCCAACGUUCUCAACUAUGACACGCGAAACGCGUACUCCGUUGAAUCGAGUGUAUCAUG [C57A C69G A91U A119G G128A G140C U145G] | ≤ -4.2
